{"source": "patent US20140088006A1", "about": "“Stem Cell Mobilization and Tissue Repair and Regeneration” (Wellstat Therapeutics Corporation, priority 2011, published 2014)", "key": {"[1]": {"test_system": "white blood cells in peripheral blood", "assay": "White blood cell count in peripheral blood after single subcutaneous injection", "format": "in vivo, C57Bl6 mice", "conditions": "s.c. 5 mg/kg; 1 hr; pooled blood", "protocol": "(§1) C57Bl6 male mice, from 8 weeks to 4 month of age, from Harlan were used. Mice received subcutaneous injections of saline, Compound X (50 μg/kg) or Compound X (250 μg/kg). After 1 and 4 hours, mice were anesthetized and blood was collected through the orbital sinus with heparinized capillary tubes. 20 μl of blood was removed from each tube for WBC counts;\n(§2) In this experiment, C57Bl6 mice received subcutaneous injections of PBS, Compound X (250 μg/kg) or AMD3100 (5 mg/kg). After 1 hr blood was collected through the orbital sinus with heparinized capillary tubes. Blood from each group was pooled, counted and mononuclear cells were isolated by density gradient separation. Cells were washed, counted and plated at 100,000 per dish (5 dishes/group) for CFU-GEMM and CFU-GM colonies. CFU-GEMM colonies were scored on day 14, while CFU-GM colonies on day 7 after plating in MC3434 (Stem cell Technology)."}, "[2]": {"test_system": "hematopoietic stem cells (HSC) and their hematopoietic progenitors (HPC)", "assay": "CFU-GM / CFU-GEMM colony assay of peripheral blood mononuclear cells after single subcutaneous injection", "format": "in vivo, C57Bl6 mice", "conditions": "s.c. 5 mg/kg", "protocol": "as §1\nRemaining blood from each group was pooled and mononuclear cells were isolated by density gradient separation. To enumerate HSC and HPC in peripheral blood cells were washed, counted plated in semi-solid Methylcellulose MC3434 (Stem cell technology) at 100,000 per dish (5 dishes/group) and placed in CO2 incubator at 37° C. Colony-forming unit-granulocyte erythroid macrophage megakaryocyte (CFU-GEMM) and Colony-forming unit-granulocyte macrophage (CFU-GM) were detected under inverted microscope 7 and 10 days after.\nas §2"}, "[3]": {"test_system": "peripheral blood cells", "assay": "FACS phenotype of peripheral blood cells after single subcutaneous injection", "format": "in vivo, C57Bl6 mice", "conditions": "for Phenotype Lin−/Sca-1+ / Phenotype Lin−/Sca-1−: 5 mg/kg, mononuclear cells", "protocol": "C57Bl6 male mice, from 8 weeks to 4 month of age, from Harlan were used. […] 20 μl of blood was removed from each tube for WBC counts;\n200 μl of blood was used for FACS analysis of cells phenotypes: briefly 50 μl of blood was transferred to a 15 ml polypropylene tube containing 1 ml ACK lysis buffer and the tubes left at room temperature for 6 minutes. 50 μl of a 1:50 dilution of Fc block (Pharmingen 01241A) along with 2 ul of anti-CD19FITC (Pharmingen 09654A) and 2 μl of anti-Gr-1PE (Pharmingen 01215A) was added and the tubes left at room temperature for 30 minutes protected from light. The cells were washed with 3 ml FACS buffer, resuspended in 300 μl FACS buffer and kept on ice, protected from light until acquired on the FACSCalibur.\nFor flow cytometry analysis the blood was stained with antibodies and a phenotype determined by FACS as described before. In addition to the whole blood FACS phenotyping, Ficolled blood was also stained to monitor the Lin−/Sca+ phenotype. The cells were washed with 3 ml FACS buffer, resuspended in 300 μl FACS buffer and kept on ice, protected from light until acquired on the FACSCalibur"}, "[4]": {"test_system": "human umbilical cord blood CD34+ cells", "assay": "Transwell migration of CD34+ cells toward SDF-1α", "format": "cell-based", "conditions": "10 μg/mL; control and Compound X treated cells; 100 ng/mL SDF-1α; 4 hours", "protocol": "CD34^+ cell migration toward 100 ng/mL SDF-1α in a Corning Transwell device (24 well format, 5 μm pore size, polycarbonate membrane) was studied with and without Compound X and in the presence or absence of either anti-CXCR4 antibody or the CXCR4 antagonist AMD3100.\nThe CD34^+ population of cells from human umbilical cord blood was obtained from Lonza, defrosted and expanded ex vivo with cytokine cocktail for 6 days according to standard procedures. Briefly, 10 wells of two 12 well dishes were seeded at a density of 8×10^4 cells per well in 2 mL of CellGenix serum free growth medium (SCGM). Cells were allowed to expand in a 37° C. incubator (5% CO2, 86% RH) for 6 days. During the expansion, the 10 wells of one of the two plates received treatments of Compound X to a final concentration of 5 ng/mL (10 μL from freshly prepared 1 μg/mL stock in SCGM) at 24 hours and 72 hours after initiation of the culture.\n3 hours prior to the start of the migration assay, both control and Compound X expanded cells were pulsed with either 0, 5 ng/mL or 5 μg/mL Compound X. Migration assay was performed according to the method described (Tavor et al. 2005). Cells were centrifuged for 5 minutes at 1100 RPM and resuspended at a density of 2×10^6 cells/mL in CellGenix SCGM serum free medium containing 1% Fraction V BSA either in the presence or absence of 5 ng/mL or 5 μg/mL Compound X for 3 hours. The feeder tray (bottom) was prepared with 600 μL of serum free SCGM supplemented with 1% BSA in the presence or absence of SDF-1α. All treatments were conducted in triplicate. The wells of the migration chamber (top) received 100 μL of cells from the 2×10^6 cells/mL suspensions, preincubated with 5 ng/mL or 5 μg/mL Compound X or Control. All treatments were conducted in triplicates. The plates were placed in a 37° C. incubator (5% CO2, 86% RH) and cells were allowed to migrate for 4 hours. […]\nThe cells were thawed at room temperature. […] 150 μL of the resulting cell lysates were transferred to a new 96 well plate and the fluorescence was read on a […] SpectraMax M2 fluorimeter (ex 485, em 538). […]"}, "[5]": {"test_system": "white blood cells in peripheral blood", "assay": "White blood cell count after 4 daily injections of G-CSF and Compound X", "format": "in vivo, mice", "conditions": "5 μg/mouse each agent s.c. daily for 4 days, pooled blood", "protocol": "Compound X and Neupogen (rG-CSF Amgen, lot# P043601) were diluted in PBS. Mice received subcutaneous injections of PBS, Compound X (5 μg/mouse), G-CSF (5 μg/mouse) or Compound X (5 μg/mouse)+G-CSF (5 μg/mouse) for four consecutive days. On the last day of injections, 1 hour post injections, blood was collected through the orbital sinus with heparinized capillary tubes. Blood was pooled from 3 mice/group and white blood cell counts were obtained. Mononuclear cells were isolated by density gradient separation from pooled blood. Cells were washed, counted and plated at 100,000 per dish (5 dishes/group) for CFU-mix and CFU-GM colonies. Blood was also collected and processed on day 8 for colony assay. Results are shown in Tables 10, 11, and 12 and in FIG. 5."}, "[6]": {"test_system": "HSC and HPC", "assay": "CFU-GM / CFU-GEMM colony assay after 4 daily injections of G-CSF and Compound X", "format": "in vivo, mice", "conditions": "for CFU-GEMM numbers, MEAN / CFU-GM numbers, MEAN / CFU-GEMM numbers / CFU-GM numbers: 5 μg/mouse each agent s.c. daily for 4 days; for CFU-GEMM numbers / CFU-GM numbers: individual dishes; for Fold increase in number of CFU-GM / Fold increase in number of CFU-Mix (CFU-GEMM): multiple injections, 5 μg/mouse each agent", "protocol": "Compound X and Neupogen (rG-CSF Amgen, lot# P043601) were diluted in PBS. Mice received subcutaneous injections of PBS, Compound X (5 μg/mouse), G-CSF (5 μg/mouse) or Compound X (5 μg/mouse)+G-CSF (5 μg/mouse) for four consecutive days. […] Mononuclear cells were isolated by density gradient separation from pooled blood. […] Blood was also collected and processed on day 8 for colony assay. Results are shown in Tables 10, 11, and 12 and in FIG. 5."}, "[7]": {"conditions": "1 hour, individual dishes, 5 mg/kg"}}, "note": "Where “and” joins values, the source holds several entries; their conditions need not be identical. Identical values can stand only once.", "data": [{"molecule": "c1cc(CN2CCCNCCNCCCNCC2)ccc1CN1CCCNCCNCCCNCC1", "note": "[AMD3100, reference compound]", "values": [{"measurement": "White blood cell count: Cell Count", "setting": "[1]", "result": "1.14e+07", "unit": "mL⁻¹"}, {"measurement": "CFU-GEMM, MEAN", "setting": "[2]; 1 hour", "result": "6.2 per 100,000 cells"}, {"measurement": "CFU-GM (day 7), MEAN", "setting": "[2]; 1 hour", "result": "20.6 per 100,000 cells"}, {"measurement": "CFU-GEMM", "setting": "[2]; [7]", "result": "5 per 100,000 cells and 4 per 100,000 cells (2×) and 11 per 100,000 cells and 7 per 100,000 cells"}, {"measurement": "CFU-GM (day 7)", "setting": "[2]; [7]", "result": "19 per 100,000 cells (3×) and 26 per 100,000 cells and 20 per 100,000 cells"}, {"measurement": "number of circulating committed precursors of granulocytes and macrophages—CFU-GM", "setting": "[2]; 1 hr", "result": "substantial increase"}, {"measurement": "increase of CFU-GEMM number in peripheral blood", "setting": "[2]; 1 hr, vs PBS", "result": 6.2, "unit": "times"}, {"measurement": "Phenotype Lin−/Sca-1+", "setting": "[3]; 1-hour", "result": 0.6, "unit": "%"}, {"measurement": "Phenotype Lin−/Sca-1−", "setting": "[3]; 1-hour", "result": 2.8, "unit": "%"}, {"measurement": "Phenotype Lin−/Sca-1+", "setting": "[3]; 30-min", "result": 0.5, "unit": "%"}, {"measurement": "Phenotype Lin−/Sca-1−", "setting": "[3]; 30-min", "result": 2.1, "unit": "%"}, {"measurement": "mobilization of lineage negative progenitors", "setting": "[3]; s.c. 5 mg/kg, 30 min and 1 hr", "result": "up to 3 times"}, {"measurement": "CD34+ cell Transwell migration toward SDF-1α", "setting": "[4]", "result": "strong inhibition"}]}, {"molecule": "G-CSF: Neupogen (rG-CSF Amgen), most common mobilizing agent for clinical uses (protein, chains of the INN, looked up) MTPLGPASSLPQSFLLKCLEQVRKIQGDGAALQEKLCATYKLCHPEELVLLGHSLGIPWAPLSSCPSQALQLAGCLSQLHSGLFLYQGLLQALEGISPELGPTLDTLQLDVADFATTIWQQMEELGMAPALQPTQGAMPAFASAFQRRAGGVLVASHLQSFLEVSYRVLRHLAQP", "values": [{"measurement": "White Blood Cell counts: Cell Count", "setting": "[5]; Day 4, 1 hour post injection", "result": "14.6 ×10^6"}, {"measurement": "White Blood Cell counts: Cell Count", "setting": "[5]; Day 8", "result": "5.0 ×10^6"}, {"measurement": "CFU-GEMM numbers, MEAN", "setting": "[6]; Day 4", "result": "17.6 per 100000 mononuclear cells"}, {"measurement": "CFU-GM numbers, MEAN", "setting": "[6]; Day 4", "result": "60.6 per 100000 mononuclear cells"}, {"measurement": "CFU-GEMM numbers", "setting": "[6]; Day 4", "result": "20 per 100000 mononuclear cells and 12 per 100000 mononuclear cells (2×) and 15 per 100000 mononuclear cells and 29 per 100000 mononuclear cells"}, {"measurement": "CFU-GM numbers", "setting": "[6]; Day 4", "result": "62 per 100000 mononuclear cells and 58 per 100000 mononuclear cells and 63 per 100000 mononuclear cells and 52 per 100000 mononuclear cells and 68 per 100000 mononuclear cells"}, {"measurement": "CFU-GEMM numbers, MEAN", "setting": "[6]; Day 8", "result": "4 per 100000 mononuclear cells"}, {"measurement": "CFU-GM numbers, MEAN", "setting": "[6]; Day 8", "result": "15.0 per 100000 mononuclear cells"}, {"measurement": "CFU-GEMM numbers", "setting": "[6]; Day 8", "result": "5 per 100000 mononuclear cells and 4 per 100000 mononuclear cells (3×) and 3 per 100000 mononuclear cells"}, {"measurement": "CFU-GM numbers", "setting": "[6]; Day 8", "result": "12 per 100000 mononuclear cells and 15 per 100000 mononuclear cells and 11 per 100000 mononuclear cells and 21 per 100000 mononuclear cells and 16 per 100000 mononuclear cells"}, {"measurement": "Fold increase in number of CFU-GM", "setting": "[6]; Day 4", "result": 12, "unit": "Fold"}, {"measurement": "Fold increase in number of CFU-Mix (CFU-GEMM)", "setting": "[6]; Day 4, 1 hr after the last injection", "result": 12.5, "unit": "Fold"}, {"measurement": "Fold increase in number of CFU-GM", "setting": "[6]; Day 8", "result": 6, "unit": "Fold"}, {"measurement": "Fold increase in number of CFU-Mix (CFU-GEMM)", "setting": "[6]; Day 8", "result": 5, "unit": "Fold"}]}]}
